The values below come from US20080020978A1 (Amgen, published 2008).

B1: PEG-peptide of SEQ ID NO 930 (peptide)
peptide: Ac-WVTH[Cit]LAGLLS[Cit]SGGVV[hArg]KNFVPTDVGP[Igl]AF-NH2
modifications: also: PEG-conjugated, in most cases at Lys25
B2: SEQ ID NO 915 (peptide)
peptide: Ac-WVTHRLAGLLSRSGGVVRKNFVPTDVGSKAF-NH2
B3: SEQ ID NO 930 (peptide)
peptide: Ac-WVTH[Cit]LAGLLS[Cit]SGGVV[hArg]KNFVPTDVGP[Igl]AF-NH2
B4: SEQ ID NO 928 (peptide)
peptide: WVTHXLAGLLSXSGGVVXKNXVPTDVGPXAF
modifications: Ac-WVTH[Cit]LAGLLS[Cit]SGGVV[hArg]KN[pI-Phe]VPTDVGP[pI-Phe]AF-NH2
B5: PEG-peptide of SEQ ID NO 928 (peptide)
peptide: B4 peptide
modifications: Ac-WVTH[Cit]LAGLLS[Cit]SGGVV[hArg]KN[pI-Phe]VPTDVGP[pI-Phe]AF-NH2; PEG-conjugated (Table 2C: in most cases at Lys^25)
B6: SEQ ID NO 912 (peptide)
peptide: WVTHRLAGLLSRSGGVVRKNXVPTDVGPFAF
modifications: Ac-WVTHRLAGLLSRSGGVVRKN[2-Nal]VPTDVGPFAF-NH2
B7: SEQ ID NO 914 (peptide)
peptide: B6 peptide with X21F, F31X
modifications: Ac-WVTHRLAGLLSRSGGVVRKNFVPTDVGPFA[1-Nal]-NH2
B8: SEQ ID NO 913 (peptide)
peptide: B6 peptide with X21F, F31X
modifications: Ac-WVTHRLAGLLSRSGGVVRKNFVPTDVGPFA[2-Nal]-NH2
B9: SEQ ID NO 922 (peptide)
peptide: B6 peptide with R5X, R12X, F31X
modifications: Ac-WVTH[Cit]LAGLLS[Cit]SGGVVRKN[pI-Phe]VPTDVGPFA[pI-Phe]-NH2
B10: SEQ ID NO 918 (peptide)
peptide: Ac-WVTH[Cit]LAGLLS[Cit]SGGVVRKNFVPTDVGPKAF-NH2
SMILES: CC(=O)N[C@@H](Cc1c[nH]c2ccccc12)C(=O)N[C@H](C(=O)N[C@H](C(=O)N[C@@H](Cc1c[nH]cn1)C(=O)N[C@@H](CCCNC(N)=O)C(=O)N[C@@H](CC(C)C)C(=O)N[C@@H](C)C(=O)NCC(=O)N[C@@H](CC(C)C)C(=O)N[C@@H](CC(C)C)C(=O)N[C@@H](CO)C(=O)N[C@@H](CCCNC(N)=O)C(=O)N[C@@H](CO)C(=O)NCC(=O)NCC(=O)N[C@H](C(=O)N[C@H](C(=O)N[C@@H](CCCNC(=N)N)C(=O)N[C@@H](CCCCN)C(=O)N[C@@H](CC(N)=O)C(=O)N[C@@H](Cc1ccccc1)C(=O)N[C@H](C(=O)N1CCC[C@H]1C(=O)N[C@H](C(=O)N[C@@H](CC(=O)O)C(=O)N[C@H](C(=O)NCC(=O)N1CCC[C@H]1C(=O)N[C@@H](CCCCN)C(=O)N[C@@H](C)C(=O)N[C@@H](Cc1ccccc1)C(N)=O)C(C)C)[C@@H](C)O)C(C)C)C(C)C)C(C)C)[C@@H](C)O)C(C)C
B11: SEQ ID NO 925 (peptide)
peptide: Ac-WVTH[hArg]LAGLLS[Cit]SGGVV[hArg]KNFVPTDVGPFA[Phg]-NH2
SMILES: CC(=O)N[C@@H](Cc1c[nH]c2ccccc12)C(=O)N[C@H](C(=O)N[C@H](C(=O)N[C@@H](Cc1c[nH]cn1)C(=O)N[C@@H](CCCCNC(=N)N)C(=O)N[C@@H](CC(C)C)C(=O)N[C@@H](C)C(=O)NCC(=O)N[C@@H](CC(C)C)C(=O)N[C@@H](CC(C)C)C(=O)N[C@@H](CO)C(=O)N[C@@H](CCCNC(N)=O)C(=O)N[C@@H](CO)C(=O)NCC(=O)NCC(=O)N[C@H](C(=O)N[C@H](C(=O)N[C@@H](CCCCNC(=N)N)C(=O)N[C@@H](CCCCN)C(=O)N[C@@H](CC(N)=O)C(=O)N[C@@H](Cc1ccccc1)C(=O)N[C@H](C(=O)N1CCC[C@H]1C(=O)N[C@H](C(=O)N[C@@H](CC(=O)O)C(=O)N[C@H](C(=O)NCC(=O)N1CCC[C@H]1C(=O)N[C@@H](Cc1ccccc1)C(=O)N[C@@H](C)C(=O)N[C@H](C(N)=O)c1ccccc1)C(C)C)[C@@H](C)O)C(C)C)C(C)C)C(C)C)[C@@H](C)O)C(C)C
B12: SEQ ID NO 909 (peptide)
peptide: Ac-WVEH[hArg]LKGLLS[Cit]SG[Aze]VV[hArg]KNFVPTDVGPFAF-NH2
modifications: lactam 3-7
SMILES: CC(=O)N[C@@H](Cc1c[nH]c2ccccc12)C(=O)N[C@H](C(=O)N[C@H]1CCC(=O)NCCCC[C@@H](C(=O)NCC(=O)N[C@@H](CC(C)C)C(=O)N[C@@H](CC(C)C)C(=O)N[C@@H](CO)C(=O)N[C@@H](CCCNC(N)=O)C(=O)N[C@@H](CO)C(=O)NCC(=O)N2CC[C@H]2C(=O)N[C@H](C(=O)N[C@H](C(=O)N[C@@H](CCCCNC(=N)N)C(=O)N[C@@H](CCCCN)C(=O)N[C@@H](CC(N)=O)C(=O)N[C@@H](Cc2ccccc2)C(=O)N[C@H](C(=O)N2CCC[C@H]2C(=O)N[C@H](C(=O)N[C@@H](CC(=O)O)C(=O)N[C@H](C(=O)NCC(=O)N2CCC[C@H]2C(=O)N[C@@H](Cc2ccccc2)C(=O)N[C@@H](C)C(=O)N[C@@H](Cc2ccccc2)C(N)=O)C(C)C)[C@@H](C)O)C(C)C)C(C)C)C(C)C)NC(=O)[C@H](CC(C)C)NC(=O)[C@H](CCCCNC(=N)N)NC(=O)[C@H](Cc2c[nH]cn2)NC1=O)C(C)C
B13: SEQ ID NO 917 (peptide)
peptide: Ac-WVTHRLAGLLSRSGGVVRKNFVPTDVGPKAF-NH2
B14: SEQ ID NO 910 (peptide)
peptide: Ac-[1Nal]VEH[hArg]LKGLLS[Cit]SG[Aze]VV[hArg]KNFVPTDVGPFAF-NH2
SMILES: CC(=O)N[C@@H](Cc1cccc2ccccc12)C(=O)N[C@H](C(=O)N[C@@H](CCC(=O)O)C(=O)N[C@@H](Cc1c[nH]cn1)C(=O)N[C@@H](CCCCNC(=N)N)C(=O)N[C@@H](CC(C)C)C(=O)N[C@@H](CCCCN)C(=O)NCC(=O)N[C@@H](CC(C)C)C(=O)N[C@@H](CC(C)C)C(=O)N[C@@H](CO)C(=O)N[C@@H](CCCNC(N)=O)C(=O)N[C@@H](CO)C(=O)NCC(=O)N1CC[C@H]1C(=O)N[C@H](C(=O)N[C@H](C(=O)N[C@@H](CCCCNC(=N)N)C(=O)N[C@@H](CCCCN)C(=O)N[C@@H](CC(N)=O)C(=O)N[C@@H](Cc1ccccc1)C(=O)N[C@H](C(=O)N1CCC[C@H]1C(=O)N[C@H](C(=O)N[C@@H](CC(=O)O)C(=O)N[C@H](C(=O)NCC(=O)N1CCC[C@H]1C(=O)N[C@@H](Cc1ccccc1)C(=O)N[C@@H](C)C(=O)N[C@@H](Cc1ccccc1)C(N)=O)C(C)C)[C@@H](C)O)C(C)C)C(C)C)C(C)C)C(C)C
B15: SEQ ID NO 916 (peptide)
peptide: C[Ahx]WVTHRLAGLLSRSGGVVRKNFVPTDVGPFAF-NH2
modifications: N-terminus assumed
SMILES: CC(C)C[C@H](NC(=O)CNC(=O)[C@H](C)NC(=O)[C@H](CC(C)C)NC(=O)[C@H](CCCNC(=N)N)NC(=O)[C@H](Cc1c[nH]cn1)NC(=O)[C@@H](NC(=O)[C@@H](NC(=O)[C@H](Cc1c[nH]c2ccccc12)NC(=O)CCCCCNC(=O)[C@@H](N)CS)C(C)C)[C@@H](C)O)C(=O)N[C@@H](CC(C)C)C(=O)N[C@@H](CO)C(=O)N[C@@H](CCCNC(=N)N)C(=O)N[C@@H](CO)C(=O)NCC(=O)NCC(=O)N[C@H](C(=O)N[C@H](C(=O)N[C@@H](CCCNC(=N)N)C(=O)N[C@@H](CCCCN)C(=O)N[C@@H](CC(N)=O)C(=O)N[C@@H](Cc1ccccc1)C(=O)N[C@H](C(=O)N1CCC[C@H]1C(=O)N[C@H](C(=O)N[C@@H](CC(=O)O)C(=O)N[C@H](C(=O)NCC(=O)N1CCC[C@H]1C(=O)N[C@@H](Cc1ccccc1)C(=O)N[C@@H](C)C(=O)N[C@@H](Cc1ccccc1)C(N)=O)C(C)C)[C@@H](C)O)C(C)C)C(C)C)C(C)C
B16: SEQ ID NO 920 (peptide)
peptide: WVTHXLAGLLSXSGGVVRKNFVPTDVGXFAF
modifications: Ac-WVTH[Cit]LAGLLS[Cit]SGGVVRKNFVPTDVG[Oic]FAF-NH2
B17: PEG-peptide of SEQ ID NO 926 (peptide)
peptide: B4 peptide with X21F
modifications: Ac-WVTH[hArg]LAGLLS[Cit]SGGVV[hArg]KNFVPTDVGP[2-Nal]AF-NH2; PEG-conjugated (Table 2C: in most cases at Lys^25)
B18: PEG-peptide of SEQ ID NO 927 (peptide)
peptide: B4 peptide with X21F
modifications: Ac-WVTH[Cit]LAGLLS[Cit]SGGVV[hArg]KNFVPTDVGP[1-Nal]AF-NH2; PEG-conjugated (Table 2C: in most cases at Lys^25)
B19: SEQ ID NO 924 (peptide)
peptide: B4 peptide with X21F
modifications: Ac-WVTH[hArg]LAGLLS[Cit]SGGVV[hArg]KNFVPTDVGP[1-Nal]AF-NH2
B20: SEQ ID NO 923 (peptide)
peptide: B16 peptide with X28P, F31X
modifications: Ac-WVTH[Cit]LAGLLS[Cit]SGGVVRKNFVPTDVGPFA[pI-Phe]-NH2
B21: SEQ ID NO 934 (peptide)
peptide: B16 peptide with R18X, F29X
modifications: Ac-WVTH[Cit]LAGLLS[Cit]SGGVV[hArg]KNFVPTDVG[Oic][2-Nal]AF-NH2
B22: SEQ ID NO 921 (peptide)
peptide: B16 peptide with P23X
modifications: Ac-WVTH[Cit]LAGLLS[Cit]SGGVVRKNFV[Oic]TDVG[Oic]FAF-NH2
B23: SEQ ID NO 932 (peptide)
peptide: B16 peptide with R18X, P23X
modifications: Ac-WVTH[Cit]LAGLLS[Cit]SGGVV[hArg]KNFV[Oic]TDVG[Oic]FAF-NH2
B24: SEQ ID NO 929 (peptide)
peptide: B4 peptide with X21F
modifications: Ac-WVTH[Cit]LAGLLS[Cit]SGGVV[hArg]KNFVPTDVGP[Bip]AF-NH2
B25: PEG-peptide of SEQ ID NO 929 (peptide)
peptide: B4 peptide with X21F
modifications: Ac-WVTH[Cit]LAGLLS[Cit]SGGVV[hArg]KNFVPTDVGP[Bip]AF-NH2; PEG-conjugated (Table 2C: in most cases at Lys^25)
B26: SEQ ID NO 926 (peptide)
peptide: B4 peptide with X21F
modifications: Ac-WVTH[hArg]LAGLLS[Cit]SGGVV[hArg]KNFVPTDVGP[2-Nal]AF-NH2
B27: SEQ ID NO 927 (peptide)
peptide: B4 peptide with X21F
modifications: Ac-WVTH[Cit]LAGLLS[Cit]SGGVV[hArg]KNFVPTDVGP[1-Nal]AF-NH2
B28: SEQ ID NO 936 (peptide)
peptide: B16 peptide with R18X, X28P
modifications: Ac-WVTH[Cit]LAGLLS[hArg]SGGVV[BhArg]KNFVPTDVGPFAF-NH2
B29: SEQ ID NO 935 (peptide)
peptide: B16 peptide with R18X, X28P
modifications: Ac-WVTH[Cit]LAGLLS[hArg]SGGVV[Guf]KNFVPTDVGPFAF-NH2
B30: SEQ ID NO 933 (peptide)
peptide: B16 peptide with R18X, F29X
modifications: Ac-WVTH[Cit]LAGLLS[Cit]SGGVV[hArg]KNFVPTDVG[Oic][1-Nal]AF-NH2

Positions count from the first letter of the chain named. Bridge positions count the residues as written; N and C are the ends. Square brackets hold non-standard residues; d marks the D form. Ends that are not written are not given here. 1Nal = N[C@@H](Cc1cccc2ccccc12)C(=O)O; Igl = N[C@H](C(=O)O)C1Cc2ccccc2C1; hArg = N=C(N)NCCCC[C@H](N)C(=O)O; Cit = NC(=O)NCCC[C@H](N)C(=O)O; Phg = N[C@H](C(=O)O)c1ccccc1; Aze = O=C(O)[C@@H]1CCN1; Ahx = NCCCCCC(=O)O

The experiment deals with CGRP1 receptor (CRLR/RAMP1 complex) of human neuroblastoma SK-N-MC cells (human, UniProt Q16602 23-461; O60894 27-148). In words: cell-based or functional assay.
Chain of CGRP1 receptor (CRLR/RAMP1 complex) of human neuroblastoma SK-N-MC cells (Q16602 23-461, chain 1 of 2): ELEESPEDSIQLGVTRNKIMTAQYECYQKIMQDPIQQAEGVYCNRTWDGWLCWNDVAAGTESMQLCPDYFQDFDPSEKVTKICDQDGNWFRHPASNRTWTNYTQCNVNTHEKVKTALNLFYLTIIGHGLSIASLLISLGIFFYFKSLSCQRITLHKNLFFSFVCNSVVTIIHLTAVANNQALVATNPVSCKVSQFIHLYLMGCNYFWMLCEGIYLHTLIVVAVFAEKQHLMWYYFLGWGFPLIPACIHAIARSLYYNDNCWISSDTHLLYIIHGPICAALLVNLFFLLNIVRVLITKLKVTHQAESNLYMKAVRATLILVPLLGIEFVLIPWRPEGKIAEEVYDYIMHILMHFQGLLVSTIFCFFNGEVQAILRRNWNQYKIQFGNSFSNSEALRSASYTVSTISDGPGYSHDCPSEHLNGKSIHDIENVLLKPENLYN
Chain of CGRP1 receptor (CRLR/RAMP1 complex) of human neuroblastoma SK-N-MC cells (O60894 27-148, chain 2 of 2): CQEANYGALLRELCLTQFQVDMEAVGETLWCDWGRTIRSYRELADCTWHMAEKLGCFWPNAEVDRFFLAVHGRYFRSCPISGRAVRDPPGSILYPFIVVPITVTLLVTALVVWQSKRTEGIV
Take B1: the “PEG-peptide IC50” value was 126 nM.
Consider B2, for which the “Peptide IC50” value came out at 1.15 nM.
Still for that read-out and setting: the same measure for B3: 4.58 nM; for B4: 1.16 nM.
Take B5: the “PEG-peptide IC50” value amounted to 11.4 nM.
For the molecule B6, the “Peptide IC50” value worked out at 1.16 nM.
B7: the “Peptide IC50” value turned out to be 33.1 nM.
Consider B8, for which the “Peptide IC50” value worked out at 1.72 nM.
As for B9, the “Peptide IC50” value worked out at 2.21 nM.
Turning to B10, the “Peptide IC50” value came out at 1.48 nM.
B11: the “Peptide IC50” value came out at 6.78 nM.
For the molecule B12, the “Peptide IC50” value was 3.45 nM.
As for B13, the “Peptide IC50” value was 1 nM.
On to B14, for which the “Peptide IC50” value is 2.31 nM.
With B15, the “Peptide IC50” value amounted to 1.8 nM.
For the molecule B16, the “Peptide IC50” value was found to be 0.85 nM.
In the case of B17, the “PEG-peptide IC50” value was found to be 2.39 nM.
Turning to B18, the “PEG-peptide IC50” value came to 2.54 nM.
As for B19, the “Peptide IC50” value stood at 2.18 nM.
As for B20, the “Peptide IC50” value was 2.24 nM.
In the case of B21, the “Peptide IC50” value came out at 1.65 nM.
Turning to B22, the “Peptide IC50” value came to 0.93 nM.
As for B23, the “Peptide IC50” value was found to be 1.31 nM.
Consider B24, for which the “Peptide IC50” value was found to be 1.76 nM.
Take B25: the “PEG-peptide IC50” value was 5.58 nM.
On to B26, for which the “Peptide IC50” value came to 0.88 nM.
Consider B27, for which the “Peptide IC50” value was determined as 1.28 nM.
Take B28: the “Peptide IC50” value was found to be 2.41 nM.
On to B29, for which the “Peptide IC50” value was 2.37 nM.
On the same count and under the same terms, the same measure for B30: 0.88 nM.
